Measured values taken from patent US20230044467A1.

Columns and labels:
[1] = biological target: Nα,Nε-diacetyl-L-Lys-D-Ala-D-Ala tripeptide; assay: ITC, tripeptide injected into 10 uM glycopeptide, 25 C, one-site model
[2] = biological target: Nα,Nε-diacetyl-L-Lys-D-Ala-D-Ala tripeptide; assay: ITC, 25 C, one-site model

Row | Kd [1] | TΔS [2] | ΔG [2] | ΔH [2] | Substance
1 | 1700 nM | 0.85 kcal/mol | -7.9 kcal/mol | -7 kcal/mol | keratinimicin A (peptide)
2 | 2800 nM | 0.2 kcal/mol | -7.6 kcal/mol | -7.4 kcal/mol | keratinimicin C (peptide)
3 | 2700 nM | -0.96 kcal/mol | -7.6 kcal/mol | -8.6 kcal/mol | vancomycin (peptide)
